# Laboratory results taken from US12226476B2, “Helper epitope peptide and application thereof” (CHINA PHARMACEUTICAL UNIVERSITY, priority 2018, dated 2025).
# Non-standard residues stand in square brackets, D forms with d. Phe(4-NO2) = N[C@@H](Cc1ccc([N+](=O)[O-])cc1)C(=O)O
# B1: EPCAM-3 ? 11pPhe-PADRE: fusion antigen: EPCAM linked via GPSL to helper epitope SEQ ID NO: 17 (protein)
# chain: QEECVCENYKLAVNCFVNNNRQCQCTSVGAQNTVICSKLAAKCLVMKAEMNGSKLGRRAKPEGALQNNDGLYDPDCDESGLFKAKQCNGTSMCWCVNTAGVRRTDKDTEITCSERVRTYWIIIELKHKAREKPYDSKSLRTALQKEITTRYQLDPKFITSILYENNVITIDLVQNSSQKTQNDVDIADVAYYFEKDVKGESLFHSKKMDLTVNGEQLDLDPGQTLIYYVDEKAPEFSMQGLKGPSLAK[Phe(4-NO2)]VAAWTLK[Phe(4-NO2)]AA
# Tested on: EPCAM
# Experiment: Antibody titer in serum of immunized mice, indirect ELISA
# Assay type: in vivo
# Conditions: FIG. 16; compared with the EPCAM group and the EPCAM-PADRE group; mice immunized subcutaneously, 50 μg, Freund's adjuvant
# Experimental: The protocol is as follows: • (1) The helper epitope was connected to individual antigens or antigen epitope with the linking peptide to construct multiple fusion antigens. The sequence of the linking peptide is GPSL (i.e. Gly-Pro-Ser-Leu) (SEQ ID NO:51). • (2) The fusion antigens from (1) were emulsified adequately with complete Freund's adjuvant of the same volume. Then to immunize mice via subcutaneous injection with the emulsion at the dose of 50 μg per mouse. The strains of experimental mice including C57, Fvb and Balb/C. After 7 days and 14 days of first immunization, the fusion antigens from (1) were emulsified adequately with incomplete Freund's adjuvant of the same volume and then to immunize mice via subcutaneous injection with the emulsion at the dose of 50 μg per mouse. • (3) There are two detection methods. One is to obtain the orbital blood of immunized mice on 7, 14, 21 and 28 day respectively, centrifuge the whole blood to get the serum. Then the antibody titer is detected by indirect ELISA. The other one is: one week after the last immunization, the mice are killed to get the spleen. PBMC (peripheral blood mononuclear cells) are isolated, and the CTL-mediated cytotoxicity is detected by LDH (lactate dehydrogenase) kit.
# The first step was to construct the fusion antigen. According to each fusion antigen, C57BL/6 female mice aged 6-8 weeks were randomly divided into three groups with 6 mice in each group. They were PBS group, existing antigen or antigen epitope group, antigen-PADRE or antigen epitope-PADRE group, and vaccine group containing fusion antigen.
# In the second step, using fusion antigen to immunize mice via subcutaneous injection for 3 times […] 50 μg each time. Mixed with Freund's adjuvant of the same volume.
# Method 1: The whole blood was collected every week after immunization and centrifugated at 6000 rpm for 20 min to obtain the serum for a total of 4 weeks. Antibody titers were detected by indirect ELISA as follows: • (1) Coating: the existing antigen or antigen epitope was diluted to 5 μg/mL with coating solution. Then the 100 μL mixed solution was added into each well of enzyme immunoassay test strip, and incubated in 37° C. incubator for 2 h; • (2) use PBST to wash each well 5 times for 5 min each time; • (3) Sealing: 150 μL locking solution was added to each well of the enzyme immunoassay test strip and incubated at 4° C. overnight. • (4) Repeat step (2); • (5) Incubation first antibody: the collected mouse serum was diluted with antibody diluent. Then the 100 μL mixed solution was added into each well, and incubated at 37° C. for 2 h; • (6) Repeat step (2); • (7) Incubating secondary antibodies: HRP-GOAT Anti-mouse IgG was diluted with antibody dilution in the ratio of 1:10000, and 100 μL dilution was added to each well, and incubated at 37° C. for 45 min; • (8) Repeat step (2); • (9) Substrate addition: 100 μL TMB substrate reaction solution was added into each well of enzyme label, and incubated at 37° C. for 15 min in darkness. • (10) Termination reaction: 50 μL 2M H2SO4 was added into each well to terminate the reaction. • (11) Color development: the absorbance value of the sample in each well was detected at 450/630 nm.
molecule,measurement,value
B1,antibody titers,increased significantly
